In assay [1] the target is T1, human PD-L1 (full length, on cells) (human, UniProt Q9NZQ7 19-290).
T1 construct: The entry holds the signal peptide; also called CD274; B7H1
As to the kind of experiment: flow cytometry on MDA-MB-231 cells, PE anti-human IgG secondary, MFI (PE). As to the method:
(§1) Cells (3-5×10⁴ cells/well) were incubated in polystyrene 96-well round-bottom plates (Greiner bio-one, cat. no. 650101) with serial dilutions of antibodies (range 0.0001 to 10 μg/mL in 5-fold dilution steps) in 50 μL PBS/0.1% BSA/0.02% azide (staining buffer) at 4° C. for 30 min.
(§2) After washing twice in staining buffer, cells were incubated in 50 μL secondary antibody at 4° C. for 30 min. As a secondary antibody, R-Phycoerythrin (PE)-conjugated goat-anti-human IgG F(ab′)₂ (Cat. no. 109-116-098, Jackson ImmunoResearch Laboratories, Inc., West Grove, Pa.) diluted 1:500 in staining buffer, was used for all experiments. Next, cells were washed twice in staining buffer, re-suspended in 20 μL staining buffer and analyzed on an iQue screener (Intellicyt Corporation, USA). Binding curves were analyzed using non-linear regression (sigmoidal dose-response with variable slope) using GraphPad Prism V75.04 software (GraphPad Software, San Diego, Calif., USA).

The target of assay [2] is T2, PDLoneECDHisCtag (human, UniProt Q9NZQ7 19-238).
T2 construct: Expressed in HEK-293F cells; theoretical molecular weight 29 kDa; also called recombinant human PD-L1 ECD; human PD-L1 (BLI); not shown: C-terminal His-tag; C-tag
T2 sequence (Q9NZQ7 19-238, form in doubt): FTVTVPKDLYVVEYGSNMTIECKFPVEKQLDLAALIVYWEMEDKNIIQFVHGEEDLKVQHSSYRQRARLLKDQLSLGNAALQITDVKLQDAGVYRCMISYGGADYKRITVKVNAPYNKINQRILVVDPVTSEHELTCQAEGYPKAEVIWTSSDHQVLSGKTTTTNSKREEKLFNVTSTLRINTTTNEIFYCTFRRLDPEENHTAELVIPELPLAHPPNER
As to the kind of experiment: BLI (Octet HTX); antibody on anti-human IgG Fc capture sensor, PDLoneECDHisCtag as analyte; 1:1 global fit, 200 s dissociation time. On the procedure:
In a first set of experiments, affinities for recombinant-expressed human PD-L1 protein were determined using Bio-layer interferometry (BLI) on an Octet HTX instrument (ForteBio). Anti-Human IgG Fc Capture (AHC) biosensors (ForteBio) were loaded for 900 s with antibodies (1 μg/ml). […] The experiment was carried out while shaking at 1000 rpm at 30° C. Data was analyzed with Data Analysis Software v9.0.0.12 (ForteBio) using the 1:1 model and a global full fit with 1000 s association time and 200 or 1000 s dissociation time. Data traces were corrected by subtraction of a buffer reference, the Y-axis was aligned to the last 10 s of the baseline, and interstep correction as well as Savitzky-Golay filtering was applied. Data traces with a response <0.05 nm were excluded from analysis. As default, the fit using 1000 s dissociation time was used.
On the technique in general: Biolayer interferometry detects binding as a change in optical thickness at a sensor tip.

For assay [3], the target named is T2, PDLoneECDHisCtag. Description: BLI cross-block, second antibody on PDLoneECDHisCtag held by immobilised 421-LC91S; plain = non-blocking. As to the method:
(§3) Antibody cross-block testing was performed using biolayer interferometry (BLI) on an Octet HTX instrument (ForteBio). Antibodies (20 μg/ml in 10 mM sodium acetate buffer pH 6.0 (ForteBio)) were immobilized on Amine-Reactive 2nd Generation (AR2G) biosensors (ForteBio) according to the instructions of the manufacturer. After a baseline (50 s) in Sample Diluent (ForteBio), biosensors containing immobilized antibodies were loaded for 500 s with PDLoneECDHisCtag (100 nM or 2.7 μg/ml), after which the association response of a second antibody (10 μg/ml) was followed for 500 s. Biosensors were regenerated by using 3 times 5 s alternating exposures to 10 mM glycine pH 2.5 and Sample Diluent. The experiment was repeated with a new set of second antibodies starting from the baseline step. Each biosensor was used 6 times. The experiment was performed at 30° C. using a shaker speed of 1000 rpm. Data was analyzed using Data Analysis Software v9.0.0.12 (ForteBio). The Y-axis was aligned to the association step and Savitzky-Golay filtering was applied. The average buffer response was subtracted from the association response of the second antibody in order to correct for the dissociation of PDLoneECDHisCtag from the immobilized antibody. The corrected association responses were plotted in a matrix format.

Assay [4] concerns the target T2, PDLoneECDHisCtag. As to the kind of experiment: BLI cross-block, second antibody on PDLoneECDHisCtag held by immobilised 476-N101Q-LC33S; bold = blocking. On the procedure:
as §3

The target in assay [5] is T2, PDLoneECDHisCtag. As to the kind of experiment: BLI cross-block, second antibody on PDLoneECDHisCtag held by immobilised 547; plain = non-blocking. As to the method: as §3
For assay [6], the target named is T1, human PD-L1 (full length, on cells). Description: cell-based or functional assay.
Assay [7] shares this target. As to the kind of experiment: flow cytometry on MDA-MB-231 cells, PE anti-human IgG secondary, MFI (PE). On the procedure: as §1, §2
This is another data set of the same source. A general note: In flow cytometry, cells or beads pass a laser one at a time.

Assay [8] concerns the target T3, cynomolgus monkey PD-L1 (full length, on CHO cells) (cynomolgus monkey (Macaca fascicularis), UniProt G7PSE7 19-290).
T3 construct: whole, on cells; also called PDL1 Mf; cynomolgus PD-L1
Description: flow cytometry on CHO cells transfected with cynomolgus PD-L1, PE anti-human IgG secondary, MFI (PE). As to the method:
as §1, §2
(§4) Binding to CHO cells expressing cynomolgus PD-L1 was determined by flow cytometry using a method as described above.

For assay [9], the target named is T2, PDLoneECDHisCtag. As to the kind of experiment: BLI cross-block, second antibody on PDLoneECDHisCtag held by immobilised 511-LC33S; plain = non-blocking. As to the method: as §3
For assay [10], the target named is T2, PDLoneECDHisCtag. As to the kind of experiment: BLI cross-block, second antibody on PDLoneECDHisCtag held by immobilised 476-N101Q-LC33S; plain = non-blocking. As to the method: as §3
Assay [11] addresses T3, cynomolgus monkey PD-L1 (full length, …). Description: flow cytometry on CHO cells transfected with cynomolgus PD-L1, PE anti-human IgG secondary, MFI (PE). On the procedure:
as §1, §2, §4
The source holds these as a separate data set.

In assay [12] the target is T1, human PD-L1 (full length, on cells). As to the kind of experiment: flow cytometry on MDA-MB-231 cells, PE anti-human IgG secondary, MFI (PE). As to the method: as §1, §2
This is another data set of the same source.

Like-named read-outs stand apart in the source and are kept apart here.

What is called EC50 (read off the curve) is the midpoint of the concentration-response curve. In general, Kd refers to a measure of binding affinity in units of concentration. One may read the koff as a measure of how fast the partners let go of each other. One may read the kon as the second-order rate constant of association.

T1 sequence (Q9NZQ7 19-290 limits assumed): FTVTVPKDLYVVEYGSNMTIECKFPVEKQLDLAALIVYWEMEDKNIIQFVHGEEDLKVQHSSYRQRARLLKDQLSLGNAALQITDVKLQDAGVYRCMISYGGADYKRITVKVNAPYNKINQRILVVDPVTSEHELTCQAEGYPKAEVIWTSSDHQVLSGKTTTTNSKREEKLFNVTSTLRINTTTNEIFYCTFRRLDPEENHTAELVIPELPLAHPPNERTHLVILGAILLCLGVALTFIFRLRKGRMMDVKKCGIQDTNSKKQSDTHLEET
T3 sequence (G7PSE7 entry or part of it): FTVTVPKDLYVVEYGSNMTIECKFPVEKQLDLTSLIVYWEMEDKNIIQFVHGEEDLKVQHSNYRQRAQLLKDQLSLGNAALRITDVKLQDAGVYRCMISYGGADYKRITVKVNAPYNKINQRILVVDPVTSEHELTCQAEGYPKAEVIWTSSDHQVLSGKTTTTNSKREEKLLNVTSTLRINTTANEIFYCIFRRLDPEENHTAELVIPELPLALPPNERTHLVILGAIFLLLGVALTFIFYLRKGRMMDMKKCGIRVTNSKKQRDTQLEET

B1: IgG1-511-LC33S-FEAR (antibody, V domains shown)
VH: QVQLVQSGSELKKPGASVMVSCKASGYTFTSYVMNWVRQAPGQGLEWMGWINSYTGNPTSAQGFTGRFVFSFDTSVNTAYLQISSLKAEDTAVYYCARGYCTSTSCYLDYWGQGTLVTVSS
VL: SYELTQPPSVSVSPGHTARITCSGDALPKKYASWFQQKSGQAPVLVIYEDSKRPSGIPERFSGSTSGTMATLTISGAQVEDETDYYCYSADTSGTHRVFGGGTKLTVLG
As to B1, the 50% effective concentration (EC50 (read off the curve)) in assay [1] was around 0.08 µg/mL. The equilibrium dissociation constant (Kd) with PDLoneECDHisCtag [2] stood at 3.8 nM. In addition, the koff with PDLoneECDHisCtag [2] was 0.0045 s⁻¹. In the assay with PDLoneECDHisCtag [2], the kon amounted to 1.2e+06 M⁻¹ s⁻¹. Besides, the “association response of the second antibody” value with PDLoneECDHisCtag [3] turned out to be 0.3 nm; in the assay with PDLoneECDHisCtag [4], 0 nm; with PDLoneECDHisCtag [5], 0.7 nm.

B2: IgG1-338-FEAR (antibody, V domains shown)
VH: EVQVVESGGGLVQPGGSLRLSCAASGFTFSRFWMSWVRQAPGKGLEWVANIKQDGGEKYYVDSVKGRFTISRDNAKNSLYLQMNSLRGEDTAVYYCARDDNWNGHFDYWGQGTLVTVSS
VL: DIQMTQSPSTLSASVGDRVTITCRASQSISSWLAWYQQKPGKAPNLLIYKASSLESGVPSRFSGSGSGTEFTLTISSLQPDDFATYYCQQYYGSYITFGQGTRLEIKR
With B2, the half-maximal effective concentration (EC50 (read off the curve)) in [6] was around 0.03 µg/mL; in [7], around 0.02 µg/mL; in assay [8] it was around 0.07 µg/mL.

B3: IgG1-547-FEAR (antibody, V domains shown)
VH: EVQLLEPGGGLVQPGGSLRLSCEASGSTFSTYAMSWVRQAPGKGLEWVSGFSGSGGFTFYADSVRGRFTISRDSSKNTLFLQMSSLRAEDTAVYYCAIPARGYNYGSFQHWGQGTLVTVSS
VL: SYVLTQPPSVSVAPGQTARITCGGNNIGSKSVHWYQQKPGQAPVLVVYDDNDRPSGLPERFSGSNSGNTATLTISRVEAGDEADYYCQVWDSSSDHVVFGGGTKLTVLG
As to B3, the “association response of the second antibody” value in the assay with PDLoneECDHisCtag [9] is 0.6 nm; with PDLoneECDHisCtag [10], 0.7 nm. The “EC50 (read off the curve)” value in assay [11] is around 0.05 µg/mL; in assay [12], around 0.03 µg/mL.
